Here are results for one substance from patent publication US20050064433.

This series concerns T1, SbfI restriction endonuclease (R.SbfI) (Streptomyces species Bf-61).
T1 sequence: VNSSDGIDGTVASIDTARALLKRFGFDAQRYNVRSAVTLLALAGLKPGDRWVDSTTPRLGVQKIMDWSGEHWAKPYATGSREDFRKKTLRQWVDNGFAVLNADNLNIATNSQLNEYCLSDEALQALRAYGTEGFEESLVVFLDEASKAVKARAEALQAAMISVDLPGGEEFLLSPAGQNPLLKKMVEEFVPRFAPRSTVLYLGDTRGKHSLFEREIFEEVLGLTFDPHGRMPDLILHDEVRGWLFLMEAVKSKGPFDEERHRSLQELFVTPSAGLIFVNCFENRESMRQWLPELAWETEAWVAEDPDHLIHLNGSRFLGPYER
The experiment in a line: cleavage_in_vitro. Particulars: recombinant cell extract, serial dilutions 1x to 1/64; yield more than about 10^5 units per gram wet E. coli cells; recognition sequence not given.

Turning to “lambda DNA (printed as "I DNA") restriction substrate”, the activity (U/g wet cells) is 100000.
